Assay results as given in patent US11787839B2, “Targeting α2δ-1-bound glutamate receptors for treating diseases and disorders” (Board of Regents, The University of Texas System, priority 2017, dated 2023).
“Also recorded” adds a separate entry of the source.

How the values were obtained:
α2δ-1-Cav2.2 interaction = molecular target: T1, α2δ-1-Cav2.2 interaction (Rattus norvegicus, UniProt P54290+Q02294); experiment: Co-IP of α2δ-1 and Cav2.2 in spinal cord after intrathecal injection; type: in vivo; conditions: SNL and sham rats, intrathecal 1 μg, 60 min
T1 construct: from tissue; host or cells: rat dorsal spinal cord (L5-L6) membrane extracts after intrathecal injection
T1 sequence (P54290 25-944 limits assumed): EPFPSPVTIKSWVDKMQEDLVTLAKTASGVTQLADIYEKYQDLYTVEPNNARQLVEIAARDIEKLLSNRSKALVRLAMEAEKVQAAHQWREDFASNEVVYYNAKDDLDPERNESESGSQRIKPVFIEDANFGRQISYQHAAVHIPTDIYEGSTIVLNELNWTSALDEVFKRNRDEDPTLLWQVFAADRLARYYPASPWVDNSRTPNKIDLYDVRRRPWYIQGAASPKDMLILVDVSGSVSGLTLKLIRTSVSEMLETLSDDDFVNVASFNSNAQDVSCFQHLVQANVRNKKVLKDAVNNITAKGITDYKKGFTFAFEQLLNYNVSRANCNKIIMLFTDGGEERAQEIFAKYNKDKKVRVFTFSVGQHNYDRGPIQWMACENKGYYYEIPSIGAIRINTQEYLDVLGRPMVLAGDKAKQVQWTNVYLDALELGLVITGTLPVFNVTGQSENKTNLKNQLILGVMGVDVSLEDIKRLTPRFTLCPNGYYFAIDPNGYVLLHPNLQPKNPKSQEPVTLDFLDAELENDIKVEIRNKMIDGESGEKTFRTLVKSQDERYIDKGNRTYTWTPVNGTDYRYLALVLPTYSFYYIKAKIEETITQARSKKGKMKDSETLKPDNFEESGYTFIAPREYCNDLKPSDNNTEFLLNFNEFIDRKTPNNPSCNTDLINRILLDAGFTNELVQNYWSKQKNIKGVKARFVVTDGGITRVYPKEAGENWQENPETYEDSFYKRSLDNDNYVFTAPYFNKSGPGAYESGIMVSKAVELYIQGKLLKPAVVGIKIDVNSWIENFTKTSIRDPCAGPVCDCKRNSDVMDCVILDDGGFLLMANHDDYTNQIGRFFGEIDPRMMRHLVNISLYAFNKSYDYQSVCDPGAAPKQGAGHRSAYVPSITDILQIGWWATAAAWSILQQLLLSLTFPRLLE
T1 sequence (Q02294 whole entry): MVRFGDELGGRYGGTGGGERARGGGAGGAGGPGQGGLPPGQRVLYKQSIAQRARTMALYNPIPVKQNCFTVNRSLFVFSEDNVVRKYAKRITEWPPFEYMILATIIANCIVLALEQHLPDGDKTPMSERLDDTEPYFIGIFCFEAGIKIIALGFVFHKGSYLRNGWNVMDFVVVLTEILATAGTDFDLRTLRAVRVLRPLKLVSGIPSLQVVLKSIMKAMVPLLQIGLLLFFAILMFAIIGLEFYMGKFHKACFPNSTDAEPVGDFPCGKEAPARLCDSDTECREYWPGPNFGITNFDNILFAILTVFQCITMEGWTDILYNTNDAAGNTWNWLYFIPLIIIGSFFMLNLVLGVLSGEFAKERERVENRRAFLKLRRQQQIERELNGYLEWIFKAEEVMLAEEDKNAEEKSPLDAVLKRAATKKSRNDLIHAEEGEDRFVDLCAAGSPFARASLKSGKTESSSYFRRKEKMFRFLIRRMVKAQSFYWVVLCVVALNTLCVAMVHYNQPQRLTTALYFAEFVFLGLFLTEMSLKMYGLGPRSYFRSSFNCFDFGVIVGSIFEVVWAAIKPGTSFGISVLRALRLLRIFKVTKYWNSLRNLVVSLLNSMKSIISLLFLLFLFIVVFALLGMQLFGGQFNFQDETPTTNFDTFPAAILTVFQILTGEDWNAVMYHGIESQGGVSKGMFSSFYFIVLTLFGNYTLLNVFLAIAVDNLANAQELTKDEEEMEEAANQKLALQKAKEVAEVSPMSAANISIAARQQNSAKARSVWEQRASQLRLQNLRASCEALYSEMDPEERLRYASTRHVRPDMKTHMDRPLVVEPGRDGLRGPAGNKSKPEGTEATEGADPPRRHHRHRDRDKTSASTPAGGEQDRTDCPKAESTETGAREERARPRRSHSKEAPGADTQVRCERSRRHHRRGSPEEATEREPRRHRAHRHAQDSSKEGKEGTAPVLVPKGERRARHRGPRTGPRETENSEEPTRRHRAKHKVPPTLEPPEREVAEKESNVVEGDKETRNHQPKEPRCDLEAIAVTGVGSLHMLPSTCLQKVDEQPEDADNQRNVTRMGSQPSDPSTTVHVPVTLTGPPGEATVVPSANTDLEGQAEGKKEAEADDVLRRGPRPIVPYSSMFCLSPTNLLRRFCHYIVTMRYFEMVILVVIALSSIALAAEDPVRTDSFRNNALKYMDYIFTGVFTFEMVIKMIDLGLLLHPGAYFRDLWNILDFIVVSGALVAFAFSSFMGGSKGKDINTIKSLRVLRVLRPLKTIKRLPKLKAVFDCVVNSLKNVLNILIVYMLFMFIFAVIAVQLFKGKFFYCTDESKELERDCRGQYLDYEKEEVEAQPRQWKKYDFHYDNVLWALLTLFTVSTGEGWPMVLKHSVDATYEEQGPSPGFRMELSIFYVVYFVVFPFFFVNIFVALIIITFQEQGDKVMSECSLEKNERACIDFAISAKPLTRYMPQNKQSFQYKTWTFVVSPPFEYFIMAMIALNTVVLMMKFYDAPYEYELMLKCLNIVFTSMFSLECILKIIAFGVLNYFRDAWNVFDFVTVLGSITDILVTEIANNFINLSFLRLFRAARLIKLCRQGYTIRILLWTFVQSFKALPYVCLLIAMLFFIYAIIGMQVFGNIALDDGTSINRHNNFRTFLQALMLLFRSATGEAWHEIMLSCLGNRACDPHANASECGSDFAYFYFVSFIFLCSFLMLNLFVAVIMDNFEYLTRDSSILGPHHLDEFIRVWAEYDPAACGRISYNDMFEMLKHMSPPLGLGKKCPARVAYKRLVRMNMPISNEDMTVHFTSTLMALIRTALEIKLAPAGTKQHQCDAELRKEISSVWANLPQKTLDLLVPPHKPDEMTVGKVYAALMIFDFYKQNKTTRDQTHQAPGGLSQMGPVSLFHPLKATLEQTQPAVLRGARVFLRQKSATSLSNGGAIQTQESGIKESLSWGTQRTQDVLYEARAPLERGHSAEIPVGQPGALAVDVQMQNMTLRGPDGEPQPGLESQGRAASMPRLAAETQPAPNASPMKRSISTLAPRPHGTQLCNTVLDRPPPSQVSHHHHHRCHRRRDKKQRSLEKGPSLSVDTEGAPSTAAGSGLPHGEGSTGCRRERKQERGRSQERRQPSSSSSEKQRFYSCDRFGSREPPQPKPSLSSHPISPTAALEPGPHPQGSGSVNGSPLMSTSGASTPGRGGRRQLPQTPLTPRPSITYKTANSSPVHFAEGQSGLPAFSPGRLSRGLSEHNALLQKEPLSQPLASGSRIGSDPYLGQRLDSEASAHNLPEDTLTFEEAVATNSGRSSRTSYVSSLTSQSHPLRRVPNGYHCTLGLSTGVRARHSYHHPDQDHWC
Procedure: Whole-cell IBa was elicited by a depolarizing pulse to 0 mV for 200 ms from a holding potential of −90 mV. […] Data are means±s.e.m. The numbers of cells recorded in each group are indicated in parentheses (cells from 4 separate experiments). […] The dorsal spinal cord at the L5 and L6 level was removed 60 min after intrathecal injection of α2δ-1Tat peptide (1 μg) or control peptide (1 μg). Membrane proteins were immunoprecipitated first with a rabbit anti-α2δ-1 or anti-IgG antibody. Western immunoblotting was performed by using an anti-Cav2.2 antibody. S, sham; L, SNL; C, control peptide; P, α2δ-1Tat peptide. Data are means±s.e.m.
Coimmunoprecipitation using spinal cord tissue membrane extracts: The dorsal quadrants of rat spinal cords at the L5 and L6 levels or the frozen lumbar spinal cord tissues from four human donors (2 males and 2 females, age ranged 18-42 years, post-mortem interval of 17-29 h; supplied by University of Maryland Brain and Tissue Bank) were dissected and homogenized in ice-cold hypotonic buffer (20 mM Tris [pH 7.4], 1 mM CaCl2, 1 mM MgCl2, and protease inhibitors) for membrane preparation. The nuclei and unbroken cells were removed by centrifugation at 300×g for 5 min. The supernatant was centrifuged for 20 min at 21,000×g. […]

α2δ-1-NMDAR interaction = experiment: Luminescence resonance energy transfer (LRET) in HEK293 cells; type: binding, rat
Text: Luminescence resonance energy transfer (LRET) measurements: For constructs used for LRET measurements, the extracellular non-disulfide-bonded cysteines were mutated to serines so that they were not labeled with the maleimide reactive fluorophore. For the GluN1 subunit, Cys22 and Cys459 were mutated; for the GluN2A subunit, Cys231, Cys399 and Cys461 were mutated. For measurement of LRET between GluN1 and α2δ-1, Cys22 was not mutated and was used as the site for attachment of the thiol-reactive fluorophore. Additionally, for quantitative analysis of the background, a thrombin recognition sequence (amino acids LVPRGS) was inserted immediately at the C-terminal to the cysteine (Kim and Chung, 1992). […]
Cysteines at the GluN1 and GluN2A sites labeled with thiol-reactive terbium chelate served as donor fluorophore sites, and YFP fused to α2δ-1 served as the acceptor fluorophore. […] The sample was excited at 337 nm, and emission was detected at 527 nm in a QuantaMaster QM3-SS system with Fluorescan software (Photon Technology International, Edison, N.J.). […] Data were analyzed with Origin 8.6 software (OriginLab Corp., Northampton, Mass.). Each sample was scanned 3 times for each ligated condition, and each scan was recorded as an average of 99 sweeps. […] The distance between the donor and acceptor was calculated using the Förster equation (Kim and Chung, 1992).

## YGRKKRRQRRRVSGLNPSLWSIFGLQFILLWLVSGSRHYLW (a2d1 peptide) [α2δ-1Tat peptide, 30-amino-acid peptide mimicking the C-terminal domain of α2δ-1 fused to the cell-penetrating peptide Tat]
α2δ-1-Cav2.2 interaction
  interaction between α2δ-1 and Cav2.2 proteins in the spinal cord tissue: lack of an effect
α2δ-1-Cav2.2 interaction; listed as α2δ-1 Tat peptide
  interaction between α2δ-1 and Cav2.2 proteins in the spinal cord tissue: had no effect

## NCC1(CC(=O)O)CCCCC1 [gabapentin]
α2δ-1-NMDAR interaction; YFP-α2δ-1 R217A mutant
  LRET signal with the R217A mutant of α2δ-1: failed to alter; also recorded: had no effect
α2δ-1-NMDAR interaction; wild-type α2δ-1, terbium-labeled GluN2A or GluN1
  LRET signal between terbium-labeled NMDAR subunit and YFP-α2δ-1: completely abrogated; also recorded: loss of the LRET signal; also recorded: diminished the interaction
